Source: US20090130105A1 (Biogen, published 2009)

Columns and labels:
[1] = biological target: T1, human IGF-1R(1-903)-Fc (human, UniProt P08069 31-933); experiment: IGF-1 blocking ELISA at 1280 nM IGF-1 His on biotinylated hIGF-1R-Fc
T1 construct: also called hIGF-1R-Fc; SDWT; not shown: human IgG1 Fc, C-terminal tag
Method: (§1) The dilutions were added to the plates in duplicate at 100 μL/well and the plates were incubated at RT for 1 hour. The plates were then washed four times with 200 μL/well PBST. An HRP-conjugated anti-Histag antibody (Penta-His HRP Conjugate, QIAGEN, Cat. No. 1014992) was diluted 1:1000 in PBST and added to plates at 100 μL/well, and the plates were incubated at RT for one hour. The plates were then washed four times with 200 μL/well PBST. SureBlue Reserve TMB Microwell Peroxidase Substrate (KPL, Cat. No. 53-00-01) was added to plates at 100 μL/well followed by 1% phosphoric acid at 100 μL/well once the desired reaction was observed. The absorbance of each well was determined at 450 nm, and the results were normalized and plotted against the log of antibody concentration.
(§2) Ligand Blocking Properties.

[2] = biological target: T2, human IGF-1R on H322M non-small cell lung cancer cells (human, UniProt P08069 31-1367); experiment: flow cytometry on H322M cells
T2 construct: Endogenous receptor of the tumor cell line; also called cell surface IGF-1R
Method: Cell lines were routinely cultured no greater than 20 passages. Flow cyotometric analysis of antibody binding to human cancer cells. Cells were lifted with cell dissociation buffer (Gibco catalog #13151-014), counted, washed and adjusted to 5×10⁶ cells/ml. Cells (2.5×10⁵; 50 uL) were added to each well of a 96-well round bottom plate (Costar #3799). Purified antibodies were tested at a starting concentration of 300 nM with serial half-log dilutions in FACS buffer. FACS buffer used throughout the assay was PBS (without Ca++/Mg++) containing 5% FBS. Samples were incubated on ice for 30 minutes, washed 3× with 200 uL FACS buffer and centrifuged at 1200 rpm for 3 minutes at 4° C. C2B8 (rituximab, IgG1) was used as a negative control. […] Samples were incubated for an additional 30 minutes on ice, shielded from light. Cells were washed as described above and resuspended in 100 μl FACS buffer containing propidium iodide (PI) for dead cell exclusion (BD Pharmingen, catalog# 51-66211E or 556463; use at 1:500 final in FACS buffer). Samples were run in triplicate using the FACSArray flow cytometer (Becton Dickinson) with 5000 live events collected per sample. Data analysis was performed using the GraphPad Prism version 5.0 software (GraphPad Software Inc., 11452 El Camino Real #215, San Diego, Calif. 92130). Results. […]

[3] = biological target: T1, human IGF-1R(1-903)-Fc; experiment: ELISA, blocking of IGF-2 His (640 nM by the table head) on biotinylated hIGF-1R-Fc
[4] = biological target: T1, human IGF-1R(1-903)-Fc; experiment: ELISA, blocking of 320 nM IGF-1 His on biotinylated hIGF-1R-Fc
Method: as §1, with “hIGF-1R-Fc was biotinylated using EZ-Link Sulfo-NHS-LC-Biotin according to the protocol provided by the manufacturer (Pierce Cat. No. 21335). Biotinylated human IGF-1R Fc (NB12453-9) at 5 μg/ml was added to the wells of SigmaScreen streptavidin-coated 96-well plates (Sigma, Cat. No. M5432-5EA) at 100 μL/well and incubated overnight at 2-8° C. The plates were then washed four times with 200 μL/well PBST. […] The dilutions” for “The dilutions”

[5] = biological target: T3, sIGF-1R(1-903) (human, UniProt P08069 31-933); experiment: ITC, 25 °C; footnote a: affinity too high for accurate measurement
T3 construct: also called soluble IGF-1R ectodomain
Method: (§3) Isothermal Titration Calorimetry (ITC). […] The reagents were co-dialyzed against PBS, pH 7.2. The protein solutions were adjusted to the concentrations listed above by dilution using PBS dialysate. […] The protein solutions were prepared as described above for the MAb binding experiments. All ITC experiments were performed on an ITC₂₀₀ microcalorimeter (MicroCal, LLC) at 25° C. […] IGF-1R bispecific antibodies. A four minute equilibration period was used between all injections with an initial delay of 60 seconds. Numerical integration of the data was performed using the ITC data analysis software supplied by MicroCal (Origin). ΔHA° (T) values were calculated based on the difference between the average heat liberated/absorbed during the binding phase of the injections and the average heat of dilution found once the receptor, IGF-1R, was saturated with MAb or BsAb.

[6] = biological target: T4, hIGF-1R-Fc mutant SD015 (H464E) (human, UniProt P08069 31-933); experiment: SPR (Biacore relative RUmax) and tr-FRET competition
T4 construct: not shown: human IgG1 Fc, C-terminal tag
Method: After, completion of the receptor-Fc loading step, flow rates were elevated to 5 μl/min. […] At the end of each sensorgram, the flow rate was elevated to 30 μl/min and the chip surface was regenerated by 2×10 μL injections of 0.1 M glycine, pH 2.

[7] = biological target: T3, sIGF-1R(1-903); experiment: ITC, 25 °C, antibody into sIGF-1R(1-903)
Method: as §3

[8] = biological target: T1, human IGF-1R(1-903)-Fc; experiment: IGF-1 blocking ELISA: antibody titrated in 320 nM IGF-1 His on biotinylated hIGF-1R-Fc on streptavidin plates, bound ligand detected with anti-His-HRP
Method: as §1, §2

T1 sequence (P08069 31-933): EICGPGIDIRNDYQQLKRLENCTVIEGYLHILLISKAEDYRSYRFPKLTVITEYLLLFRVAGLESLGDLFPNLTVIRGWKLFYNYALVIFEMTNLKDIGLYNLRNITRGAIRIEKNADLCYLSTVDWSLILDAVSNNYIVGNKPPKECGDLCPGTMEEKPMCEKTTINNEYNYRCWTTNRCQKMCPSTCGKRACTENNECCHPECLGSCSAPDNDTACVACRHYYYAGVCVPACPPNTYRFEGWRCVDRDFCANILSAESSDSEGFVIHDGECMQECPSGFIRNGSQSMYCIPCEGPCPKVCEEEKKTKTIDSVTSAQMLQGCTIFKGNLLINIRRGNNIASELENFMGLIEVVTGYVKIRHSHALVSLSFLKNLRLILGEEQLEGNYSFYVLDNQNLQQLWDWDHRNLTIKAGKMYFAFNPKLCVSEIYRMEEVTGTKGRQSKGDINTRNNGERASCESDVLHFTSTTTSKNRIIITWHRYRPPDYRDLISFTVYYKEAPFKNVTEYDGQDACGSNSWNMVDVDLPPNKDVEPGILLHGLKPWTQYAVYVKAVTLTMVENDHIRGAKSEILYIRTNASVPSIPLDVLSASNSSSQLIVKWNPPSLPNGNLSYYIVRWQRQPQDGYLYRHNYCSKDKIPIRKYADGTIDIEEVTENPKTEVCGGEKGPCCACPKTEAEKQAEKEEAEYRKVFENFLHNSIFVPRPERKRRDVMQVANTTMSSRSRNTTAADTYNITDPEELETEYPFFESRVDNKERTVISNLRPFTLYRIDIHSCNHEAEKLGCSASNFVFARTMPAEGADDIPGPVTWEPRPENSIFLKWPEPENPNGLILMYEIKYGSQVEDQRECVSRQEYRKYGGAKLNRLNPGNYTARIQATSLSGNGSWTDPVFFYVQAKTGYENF
T3 sequence (P08069 31-933): as above
T4 sequence (P08069 31-933 H494E): as the sequence (P08069 31-933) above, with H464E counted along it
T2 sequence (P08069 31-1367, stated change not applied): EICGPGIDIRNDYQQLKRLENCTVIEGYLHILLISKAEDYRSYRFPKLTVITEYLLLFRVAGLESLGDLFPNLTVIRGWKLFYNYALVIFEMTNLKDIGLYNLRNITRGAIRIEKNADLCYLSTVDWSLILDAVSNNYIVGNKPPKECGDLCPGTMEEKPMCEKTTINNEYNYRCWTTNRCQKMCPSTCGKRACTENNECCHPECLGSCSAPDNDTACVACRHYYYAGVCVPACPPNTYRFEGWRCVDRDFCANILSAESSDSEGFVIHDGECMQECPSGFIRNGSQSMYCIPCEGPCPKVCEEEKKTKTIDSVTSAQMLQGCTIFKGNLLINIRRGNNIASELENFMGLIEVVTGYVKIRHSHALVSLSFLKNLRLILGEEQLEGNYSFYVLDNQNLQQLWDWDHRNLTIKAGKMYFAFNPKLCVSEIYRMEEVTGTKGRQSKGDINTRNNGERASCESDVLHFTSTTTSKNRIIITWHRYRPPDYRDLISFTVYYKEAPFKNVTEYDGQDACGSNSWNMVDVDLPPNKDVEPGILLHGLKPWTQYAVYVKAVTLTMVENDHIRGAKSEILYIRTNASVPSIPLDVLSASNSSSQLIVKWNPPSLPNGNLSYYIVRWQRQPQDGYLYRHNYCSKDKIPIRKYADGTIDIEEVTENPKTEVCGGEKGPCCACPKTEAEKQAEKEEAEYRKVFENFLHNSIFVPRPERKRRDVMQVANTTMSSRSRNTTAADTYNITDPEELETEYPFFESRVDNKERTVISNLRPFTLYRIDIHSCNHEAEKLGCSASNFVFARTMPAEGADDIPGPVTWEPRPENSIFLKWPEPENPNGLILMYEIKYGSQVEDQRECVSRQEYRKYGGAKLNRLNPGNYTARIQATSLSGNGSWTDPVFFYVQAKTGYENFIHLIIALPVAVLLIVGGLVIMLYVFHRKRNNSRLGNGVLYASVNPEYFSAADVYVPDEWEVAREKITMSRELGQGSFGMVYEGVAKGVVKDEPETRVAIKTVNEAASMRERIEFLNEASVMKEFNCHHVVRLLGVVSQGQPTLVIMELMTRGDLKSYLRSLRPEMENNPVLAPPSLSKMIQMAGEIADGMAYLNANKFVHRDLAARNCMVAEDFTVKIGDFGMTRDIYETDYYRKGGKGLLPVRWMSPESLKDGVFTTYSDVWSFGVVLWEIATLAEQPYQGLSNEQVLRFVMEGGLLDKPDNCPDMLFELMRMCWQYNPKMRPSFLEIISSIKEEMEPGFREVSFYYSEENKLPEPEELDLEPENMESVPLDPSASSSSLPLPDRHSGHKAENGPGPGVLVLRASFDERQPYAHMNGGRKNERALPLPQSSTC

IC50 (read off the curve) [1]	EC50 [2]	IC50 [3]	IC50 [4]	-TΔS [5]	Kd [5]	ΔG [5]	binding result [6]	ΔH° [7]	IC50 (read off the curve) [8]	Binder
~1 nM	< 1 nM	1.9 nM	1.3 nM	10.6 kcal/mol	≤ 5 nM	-11.3 kcal/mol	no binding	-21.9 kcal/mol	–	M13-C06 antibody (antibody, V domains shown, Fully human full-length antibody (ATCC PTA-7444); also called M13.C06.G4.P.agly; M13-C06.G4P.agly) VH: EVQLLESGGGLVQPGGSLRLSCAASGFTFSIYRMQWVRQAPGKGLEWVSGISPSGGTTWYADSVKGRFTISRDNSKNTLYLQMNSLRAEDTAVYYCARWSGGSGYAFDIWGQGTMVTVSS VL: DIQMTQSPLSLSASVGDRVTITCQASRDIRNYLNWYQQKPGKAPKLLIYDASSLQTGVPSRFGGSGSGTDFSFTIGSLQPEDIATYYCQQFDSLPHTFGQGTKLEIK
–	–	–	–	–	–	–	–	–	~1 nM	M13-C06 Fab (Fab, V domains shown, Fab made by enzymatic digestion of the IgG) VH: EVQLLESGGGLVQPGGSLRLSCAASGFTFSIYRMQWVRQAPGKGLEWVSGISPSGGTTWYADSVKGRFTISRDNSKNTLYLQMNSLRAEDTAVYYCARWSGGSGYAFDIWGQGTMVTVSS VL: DIQMTQSPLSLSASVGDRVTITCQASRDIRNYLNWYQQKPGKAPKLLIYDASSLQTGVPSRFGGSGSGTDFSFTIGSLQPEDIATYYCQQFDSLPHTFGQGTKLEIK
